In the RNAGym collection of RNA variant scans (doi:10.7554/elife.80360):

B1: HDV Ribozyme (parent)
chain: GGCCGGCAUGGUCCCAGCCUCCUCGCUGGCGCCGGCUGGGCAACAUUCCGAGGGGACCGUCCCCUCGGUAAUGGCGAAUGGGACCCA

Variants of: B1
Assay: self-cleavage, relative activity (ratio to wild type); higher = more cleavage; co-transcriptional

| Variant | self-cleavage |
| --- | --- |
| GGCCGGGAUGGUCCCAGCCUCCUCGCUGGCGCCGGCUGGGCAACAUUCCGAGGGGAUCGUCCCCUCGGUAAUGGCGAAUGGGACCCA | 0.383 |
| GGCCGGCAUGGUCCCAGCCUCCUCGCUGGCGCCCGCUGGGCAACAUUCCGAGGGGACCUUCCCCUCGGUAAUGGCGAAUGGGACCCA | 0.0415 |
| GGCCGGCAUGGUUCCAGCCUCCUCGCUGGCGCCGGCUGGGGAACAUUCCGAGGGGACCGUCCCCUCGGUAAUGGCGAAUGGGACCCA | 0.739 |
| GGCCGGCAUGGUCCCAGCCUCCUCGCUGGUGCCGGCUGCGCAACAUUCCGAGGGGACCGUCCCCUCGGUAAUGGCGAAUGGGACCCA | 0.0314 |
| GGCCGGCAUGGUCCCAGCCUCCUCGCUGGCGCCGGUUGGGCAACAUUCCGAGGGGACCGUCCCCUCGAUAAUGGCGAAUGGGACCCA | 0.626 |
| GGCCGGCACGGUCCCAGCCUCGUCGCUGGCGCCGGCUGGGCAACAUUCCGAGGGGACCGUCCCCUCGGUAAUGGCGAAUGGGACCCA | 0 |
| GGCCGGCAUGGUACCAGCCUCCUCGCUGGCGCCGGCUGGGCAACAUUCCGAGGGGACCGUCCCCUCGGUAAUGGCGAAUGGGACCCU | 0.157 |
| GGCCGGCAUGGUCCCAGCCGCCUCGCUGGCGCCGGCUGGGCAACAUUCCGAGGGGACCGUCCCCUCGGUAAUGGCGACUGGGACCCA | 0.249 |
| GGCCGGCAUGGUCCCAGCCUCCUCGCUGGCGCCGGCUGGGCAACAUUCCGACGGGACCGUCCCCUCGGUAAUGCCGAAUGGGACCCA | 0.17 |
| GGCCGGCAUGGUCCCAGCCUCCUCGCUGGCGCCGGCUGGGCAAAAUUCCGAGGGGACCGUCCCCUCGGUAUUGGCGAAUGGGACCCA | 0.81 |
| GGCGGGCAUGGUCCCAGCCUCCUCGCUGGCGCCGGCUGGGCAACAUUCCGAGGGGACCGUCCCCUCGGUAAUGGCGAAUGGGACUCA | 0.306 |
| GGCCGGCAUGGUCCCAGCCUCCUCGCUGGCGCCGGCUGUGCAACAUUCCGAGGGUACCGUCCCCUCGGUAAUGGCGAAUGGGACCCA | 0.677 |
| GGCCGGCAUGGUCCCAGCCUCCUCGCUGGCGCCGGCUGGGCAACAUUCCGAGGGGACCGUACCCUCGGUAAUGGCCAAUGGGACCCA | 1.08 |
| GGCCGGCAUGGUCCCAGCCUCCUCCCUGGCGCCGGCUGGGCAACAUUCCGAGGGGACCGUCCCCUCCGUAAUGGCGAAUGGGACCCA | 0.0415 |
| GGCCGGCAUGGUCCCAGCCUCCUCGCUGGCGCCGGCUGGGCAACAUUCCGAGGGGACCGUCCGCUCGGUAAUGGCGAAUGCGACCCA | 0.277 |
| GGCCGGCACGGUCCCAGCCUCCUCGCUGGCGCCGGCCGGGCAACAUUCCGAGGGGACCGUCCCCUCGGUAAUGGCGAAUGGGACCCA | 0.978 |
| GGCCGGCAUGGUCGCAGCCUCCUCGCUGGCGCCGGCUGGGCAACAUUCCGAGGGGACCGUCCCUUCGGUAAUGGCGAAUGGGACCCA | 0.516 |
| GGCCGGCAUGGUCCCAGCCUCCUCGCUGGCCCCGGCUGGGCAACAUUCCGAGGGGACCGUCCCCUCGGUAAUGGCGAAUAGGACCCA | 0.128 |
| GGCCGGCAUGGUCCGAGCCUCCUCGCUGGCGCCGGCUGGGCAACAUUCCGAGGGGACCGUCCCCUCGGUAAUGGCGCAUGGGACCCA | 0.128 |
| GGCCGGCAUGGUCCCAGCCUCCUCGCUGUCGCCGGCUGGGCAACAUUCCGAGGGGACCGUCCCCUCGGUAAUGGCGAAUGGGCCCCA | 0.0692 |
| GGCCGGCAUGGUCCCAGCCUCCUCUCUGGCGCCGGCUGGGCAACAUUCCGAGGGGACCGUCCCCUCGGUAAUGGCGAAUGAGACCCA | 0.124 |
| GGCCGGCCUGGUCCCAGCCUCCUCGCUGGCGCCGGCUGGGCAACAUUCCUAGGGGACCGUCCCCUCGGUAAUGGCGAAUGGGACCCA | 0.864 |

| Variant | self-cleavage |
| --- | --- |
| GGCCGGCAUGGUCCCAGCCUCCUCGCUGGCGCCGGCUGGGCAACAUUCCGAGGGGACCGUCACCUGGGUAAUGGCGAAUGGGACCCA | 0.623 |
| GGCCGGCAUGGUCCCAGCCUCCUCGCUGGAGCCGGCUGGGCAAAAUUCCGAGGGGACCGUCCCCUCGGUAAUGGCGAAUGGGACCCA | 0.208 |
| GGCCGUCAUGGUCCCAGCCUCCUUGCUGGCGCCGGCUGGGCAACAUUCCGAGGGGACCGUCCCCUCGGUAAUGGCGAAUGGGACCCA | 0.133 |
| GGCCGGCAUGGUCCCAGCCUCCUCGCUGGCGCCGGGUGGGCAACAUUCCCAGGGGACCGUCCCCUCGGUAAUGGCGAAUGGGACCCA | 0.0437 |
| GGCCGGCAUGGUCCCAGCCUCCACGCUGGCGCCGGCUGGGCAACAUUCCGAGGGGACCGUCCCCUCGGUAAAGGCGAAUGGGACCCA | 0.773 |
| GGCCGGCAUGGUCCCAGCCUCCUCGCUGGCGCCGACUGGGCAACAUUCCGAGGGGACCGUCCCCUCAGUAAUGGCGAAUGGGACCCA | 0.328 |
| GGCCGGCAUGGUCCCAGCCUCCUCGCUGGCGCCGGCUGGGCAACAUUACGAGGGGACCGUCCCCUCGGUAAUGGCGAAUGAGACCCA | 0.448 |
| GGCCGGCAUGGUCCCAGCCUCCUCGCUGGCGCCGGCUGGGCGACAUUCCGAGGGGACCGUCCCCUCGGUAAUGGCGGAUGGGACCCA | 0.208 |
| GGCCGGCAUGGUCCCAGCCUCGCCGCUGGCGCCGGCUGGGCAACAUUCCGAGGGGACCGUCCCCUCGGUAAUGGCGAAUGGGACCCA | 0 |
| GGCCGGCAUGGUCCCAGCCUCCUCGCUGGAGCCGGCUGGGCAACAUUCCGAGGGGACCGUCCCCUCGGUAAUGGCGAAUGGGCCCCA | 0.0811 |
| GGCCGACAUGGUCCCAGCCUCCUCUCUGGCGCCGGCUGGGCAACAUUCCGAGGGGACCGUCCCCUCGGUAAUGGCGAAUGGGACCCA | 0.089 |
| GGCCGGCAUGGUCCCAGCCUCCUCGCUUGCGCCGGCUGGGCAACAUUCCGAGGGGACCGUCCCCUCGGUUAUGGCGAAUGGGACCCA | 0 |
| GGCCGGCAUGGUCCCAGCCUCCUCGCUGGCGCCGGCUGGGCAACAUUCGGUGGGGACCGUCCCCUCGGUAAUGGCGAAUGGGACCCA | 0.554 |
| GGCCGGCUUGGUCCCAGCCUCCUCGCUGGCGCCGGCUGGGCAACAUUCCGAGGGGACCGUCCCCUCGGUAAUGGCGAAUGGGACCCU | 0.963 |
| GGCCGGCAAGGUCCCAGCCUCCUCGCUGGCGCCGGCUGGGGAACAUUCCGAGGGGACCGUCCCCUCGGUAAUGGCGAAUGGGACCCA | 0.831 |
| GGCCGGCAUGGUCCCAGCCUCCUCGCUGGCGCCGGCUGGGCAACACUCCGAGGGGACCGUUCCCUCGGUAAUGGCGAAUGGGACCCA | 0.796 |
| GGCCGGCAAGGUCCCAGCCUCCUCGCUGGCGCCGGCUGGGCAACAUUCCGAGGGGACCCUCCCCUCGGUAAUGGCGAAUGGGACCCA | 1.03 |
| GGCCGGCAUGGUCCCAGCCUCCUCGCUGGCGCCGGCUGGGCAACAUUCCGAGGGGACCGUCCCCUCGGUAAUGGCGAAUAGGACCCA | 0.348 |
| GGCCGGCAUGGUCGCAGCCUCCUCGCUGGCUCCGGCUGGGCAACAUUCCGAGGGGACCGUCCCCUCGGUAAUGGCGAAUGGGACCCA | 0.0386 |
| GGCCGGCAUGGUCCCAGCCUCCUUGCUGGCGACGGCUGGGCAACAUUCCGAGGGGACCGUCCCCUCGGUAAUGGCGAAUGGGACCCA | 0.0287 |
| GGCCGGCAUCGUCCCAGCCUCCUCGCUGGCGCCGGCUGGGCAGCAUUCCGAGGGGACCGUCCCCUCGGUAAUGGCGAAUGGGACCCA | 0.317 |
| GACCGGCAUUGUCCCAGCCUCCUCGCUGGCGCCGGCUGGGCAACAUUCCGAGGGGACCGUCCCCUCGGUAAUGGCGAAUGGGACCCA | 0.0837 |

| Variant | self-cleavage |
| --- | --- |
| GGCCGGCCUGGUCCCAGCUUCCUCGCUGGCGCCGGCUGGGCAACAUUCCGAGGGGACCGUCCCCUCGGUAAUGGCGAAUGGGACCCA | 0.0739 |
| GGCCGGCAUGGUCCCAGCCUCCUCGCUGGCGCCGUCUGGGCAACAUUCCGAGGGGACCGUCCCCUCGGUAUUGGCGAAUGGGACCCA | 0.178 |
| GGCCGGAAUGGUCCCAGCCUCCUCGCUGGCGCCGGCUGGGCAACAUUCCGAGGGGACCGUCCCCUCGGUAAUGGCGAAUGGGACACA | 0.453 |
| GGCCGGCAUGGUCCCAGCCUCCUCGCUGUCGCCGGCUGGGCAACAUUCCGAGGGGACCGUCCCCUCGGUAAUGGCGAAUGGCACCCA | 0.0545 |
| GGCCGGCAUGGUCCCAGCCUCCUCGCCGGCGCCGGCUGGGCAACAUUCCGAGGGGACCGUCCCCUCGGUAAUGGCGAAAGGGACCCA | 0.511 |
| GGCCUGCAUGGUCCCAGCCUCCUCGCUGGCGCCGGCUGGGCAACAGUCCGAGGGGACCGUCCCCUCGGUAAUGGCGAAUGGGACCCA | 0 |
| GGCCGGCAUGGUCCCAGCCUCCUCGCUGGCGCCGGCUGGGCAACAUUCCGAGGGGACCGUCCCCUCGGUAAUGGCGAAAGGGAUCCA | 0.314 |
| GGCCGGAAUGGUCCCAGCCUCCUCACUGGCGCCGGCUGGGCAACAUUCCGAGGGGACCGUCCCCUCGGUAAUGGCGAAUGGGACCCA | 0.175 |
| GGCCGGCAUGGUCCCAGCCUCCUCGCUGGAGCCGGCUGGGCAACAUUCCGAGGGGACCGUCCCCUCGGUAAUGGCGAAUGGUACCCA | 0.166 |
| GGCCGGCAUGGUCCCAGCCUCCUCGCUGGGGCCGGCUGGGCAACAUUCCGAGGGGAACGUCCCCUCGGUAAUGGCGAAUGGGACCCA | 0.138 |
| GGCCGGCAUGGUCCCAGCCUCCUCGCUGGCGCCGGCUGGGCAACAUUCCGACGGAACCGUCCCCUCGGUAAUGGCGAAUGGGACCCA | 0.901 |
| GGCCGGCAUGGUCCCUGCCUCCUCGCUGGCGCCGGCGGGGCAACAUUCCGAGGGGACCGUCCCCUCGGUAAUGGCGAAUGGGACCCA | 0 |
| GUCCGGCAUGGUCCCAGCCUCCUCGCUGGCGCCGGCUGGGCAACAUUCCGAGGGGACCGUCCACUCGGUAAUGGCGAAUGGGACCCA | 0.101 |
| GGCCGGGAUGGUCCCAGCCUCCUCGCUGGCGCCGGCUGGGCAACAUUCCGAGGGGACCGUCCCCUCGGUAAUGGCGAAUGGGACCGA | 0.378 |
| GGCCGGCAUGGUCCCAGCCUCCUCGCUGGCGCCGGCUGGGCAACAUUCCGAGGGGACCGUCUCCUCGGUAAUGGCGAAUGGGACGCA | 0.892 |
| GGCCGGCAUGGUCCCAGCCUCCUCGCUGGCGCCGGCUGGGCAACAUUCCGAGGGGACCGUCCCCACGGUAAUAGCGAAUGGGACCCA | 0.342 |
| GGCCGGCAUGGUCCCAGCCUCCUAGCUGGCGCCGGCUGGGCAACAUUCCGAGGGGACCGUCCCCUCGGUAAUGGCGAAUGGGACCCC | 0.645 |
| GGCCGGCAUGGUCCCAGCCUCCUCGCUGGCGCCGGCUGGGCAACAUUCCGAGCGGACCGUCCCCUCAGUAAUGGCGAAUGGGACCCA | 0.723 |
| GGCCGGCAUGGUCCUAGCCUCCUCGCUGGCGCCGGCUGGGCAACAUUCCGAGGGGACCGUCACCUCGGUAAUGGCGAAUGGGACCCA | 1.08 |
| GGCCGGCAUGGUCCCAGCCUCCUCGCUGGGGCCGGCUGGGCAACAUUCCGAGGGGACCGUCCCCACGGUAAUGGCGAAUGGGACCCA | 0.032 |
